Assay results as given in the supplement of paper PMC12764529.
± gives the half width of the 95% confidence interval.

Assays:
[1] = folding stability dG unfold from trypsin proteolysis; higher = more stable
How it was run: (§1)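 Unfolding free energy was derived, per protease or combined, against a sequence-predicted unfolded-state K50 and a shared folded-state K50, starting from K50 inferred by Bayesian fitting of sequencing counts. Digestion with trypsin and chymotrypsin was carried out on designed mini-proteins under 80 residues without cysteine in a PA-tagged cDNA display construct. Only designs with AlphaFold2 dimer inter-PAE above 15 were kept.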

[2] = folding stability dG unfold from chymotrypsin proteolysis; higher = more stable
How it was run: as §1

[3] = folding stability dG unfold (combined trypsin and chymotrypsin); higher = more stable
How it was run: as §1

Row | Sequence | folding stability dG unfold [1] [kcal/mol] | folding stability dG unfold [2] [kcal/mol] | folding stability dG unfold [3] [kcal/mol]
1 | SFKLEKTITLPDYVLKIEVTFKPKPDKTVIAPIKVTIYDPVKKKPYTKELTKPFPPEDPLKFVEEALKEIFS [r1_171_TrMRF] | 0.425 ± 0.1 | 0.235 ± 0.42 | 0.438 ± 0.33
2 | SFKLPPGQEIKVKIFILFVDPGDGRMYFIKIEYEITIKPDDDGNLDLDIEPTNIEVVGPMPADEAKEFFKSA [r9_423_TrROS] | 2.47 ± 0.086 | 2.54 ± 0.16 | 2.34 ± 0.25
3 | SFSISTETKVVPQDGRLLIEYEFTVPNAPPGDTAALTLSVSHPSGASTSTSQTADPAGTYTAKFVVDIPLTS [r1_161_JUSTAS] | 0.437 ± 0.061 | 0.471 ± 0.09 | 0.527 ± 0.053
4 | SGEPVIVKITFPDGTVLEIEFEGTPEEVKEAVEEEIKEYAKKHGLKPGEFKVEVIKAGDKTKETYTIKVESA [r9_1193_TrMRF] | 1.5 ± 0.098 | 2.03 ± 0.071 | 1.87 ± 0.15
5 | SGFEVERVEVEADLDKPTVARFLLVNPDGQPIVALDPVVRLGEEALVLSVYRNPVDGELRVTARRIRLDGSA [r9_269_TrMRF] | 1.1 ± 0.068 | 1.24 ± 0.11 | 1.21 ± 0.043
6 | SGFTVEVEVEYYPETGVLEVTVTTDGSSEQLIRDVADFIKEAGLDFVIESVEVEESGEVTTITLKLYVPPSA [r9_164_TrMRF] | 3.03 ± 0.18 | 4 ± 0.12 | 3.78 ± 0.21
7 | SGGMVNATVTVTLPLPDLPPVTLTVTITEEATPEEAEARKKALAAELEAELRAAAADAALPAPALTSALLSA [r9_626_JUSTAS] | 1.85 ± 0.032 | 0.156 ± 0.43 | 1.24 ± 0.29
8 | SGKVVATVPLPDGTVITVEVSPDNTVRVTVVRYRLVPNSTAPAVEVRTYTFPLPPGNPPSIQDVLDRVLSSA [r9_614_TrMRF] | 4.05 ± 0.14 | 4.53 ± 0.053 | 4.41 ± 0.098
9 | SGLKDVISVTVTQSPTAGEVPVVTAYSPDGSRTFNLAPEETEAFLKALREAGYNVVVTDRVFVPVPAELGSA [r9_607_JUSTAS] | 1.676 ± 0.016 | 1.38 ± 0.052 | 1.56 ± 0.052
10 | SGMDSNPKTTTENISFEEALKRLPSSVTSVEPRGESVVIKQSSPDSLTVVTMTRDPSSDSAPATTTTYLSSA [r9_604_JUSTAS] | 0.304 ± 0.087 | 0.181 ± 0.36 | 0.341 ± 0.17
11 | SGNGEVEVEINIRIVIEPWDPNGEPDPVPIAEIPIKAEYDANDPEAVDFAVLDILDLLAPENPGYRIHIESA [r9_1112_TrROS] | 1.11 ± 0.067 | 0.379 ± 0.047 | 0.731 ± 0.062
12 | SGPGEEEVAKRAAAEAAPTPDVREVTEEVEIVVPGTGEKVVVPVTALRLPDGTIVPLPEEEIRAIAEKLLSA [r9_1056_JUSTAS] | 0.341 ± 0.098 | 1.07 ± 0.058 | 0.771 ± 0.13
13 | SGPTSITFPDGSSASISLSPDSFTITITLPGSSATSTYDPATGTTTITLTFSSSTVTLTLDPATGTLTVGSA [r9_207_JUSTAS] | 3.86 ± 0.11 | 5.01 ± 0.083 | 4.89 ± 0.11
14 | SGSFKLLKVEEHPDNPSITAVLTFPDGSTATLRFRPDGSWTGYVESTGKPFTAVSGENELKLFVPEELTLSA [r9_233_TrMRF] | 0.67 ± 0.059 | 0.319 ± 0.14 | 0.523 ± 0.095
15 | SGSSLLSETTEFVELPDDTFATVSTSTYYIPGSGEIVTKTTVTIYPPTGPPVTTTYTSTTTPEGVLVTESSA [r9_856_JUSTAS] | 2.38 ± 0.13 | 3.59 ± 0.15 | 3.31 ± 0.2
16 | SGSTHTVRPPGGLTLTFTFSTDGTTEEAAQALKEALAAALPPDVTVTFDRIDPDKPVTPDEAATVDATVVSA [r9_178_JUSTAS] | 0.482 ± 0.055 | 1.69 ± 0.11 | 1.21 ± 0.17
17 | SGVSVKVTVEGNTITIEVSADAKIKIEVTFPTKKATYEVEVEPGKPVTFTIPLPKDVPKDAFIDKIDIGGSA [r9_1152_TrMRF] | 1.98 ± 0.11 | 3.56 ± 0.12 | 3.03 ± 0.17
18 | SIEEIADTLQKLGLNVNIDDIELEPNPDGRFRIQVQVSGEPIRQVEVPPPPPPPPEEEVRDPDGKEHKVRSA [r9_442_TrROS] | -0.188 ± 0.086 | -0.281 ± 0.26 | -0.404 ± 0.33

Row | Sequence | folding stability dG unfold [1] [kcal/mol] | folding stability dG unfold [2] [kcal/mol] | folding stability dG unfold [3] [kcal/mol]
19 | SIEIYEGPEEAEEMAEENGTPVIPIPPDMNLSEILKQLKNQPGLPPDQKIVIVIQWEPGQWYVIRIPIKPSA [r9_314_TrROS] | 2.05 ± 0.059 | 2.734 ± 0.022 | 2.53 ± 0.091
20 | SIIRSPNGYWIVITVKVPEGAKPFPPGFEVQRDPEKGTLTIIMPMPPDDIRRLAEHPGVEIEKIEFIPWDSA [r9_827_TrROS] | 1.14 ± 0.032 | 2.05 ± 0.021 | 1.74 ± 0.069
21 | SIITINFHPGMFHISIYKDGGEKTIPMPWSEIKELLKKGVDKVEIHSPDPGFMNEFQKLVQKEGIPIEIHSA [r9_810_TrROS] | 1.42 ± 0.095 | 2.12 ± 0.06 | 1.9 ± 0.25
22 | SIKIEPHPDGFFMLRFPDNGHKIMIRVDPEKGKVKIMFETPGQPVEQEIDPDEGTITIEFPNNKIEIPIKSA [r9_541_TrROS] | 2.42 ± 0.1 | 1.14 ± 0.24 | 1.56 ± 0.23
23 | SIKIRKEKTPNGYYEITFEFPFPDGWPMTIEANVQVDPENGKVKVDIKIEDPNLPPEFKEFIENFEFKVPSA [r9_715_TrROS] | 1.75 ± 0.079 | 2.97 ± 0.086 | 2.52 ± 0.23
24 | SISITLPDGTKTVSQSFNPEGNTITYTMEAPGKKITITLTEKVVGGSKEISVKITTDPVPLTPEEVAALKAS [r1_154_JUSTAS] | 2.03 ± 0.13 | 1.94 ± 0.085 | 1.86 ± 0.12
25 | SITIKIPLKPGYPYALRIHFYNPNGKPREMDMNVTRKPDGEVEIPIKIPDKDIPPGQDIRIQSIEIYPMKSA [r9_359_TrROS] | 1.5 ± 0.038 | 2.59 ± 0.1 | 1.99 ± 0.26
26 | SITITRDPDYYTLRIPPGMDSVEEVQDFLKELGFKLPPGVKDIQVEEVDKENNQVTITIQLDDPEAIQDLSA [r9_820_TrROS] | 0.601 ± 0.085 | 0.836 ± 0.28 | 0.798 ± 0.2
27 | SIYIKIPIDEIKPEWNKNGMITLEIKYPNGKTIKFEFPPGFQIDNIEVIKPGWIMFEFEIVPPADPEDAKSA [r9_501_TrROS] | 1.76 ± 0.12 | 3.06 ± 0.082 | 2.2 ± 0.16
28 | SKAEIVEIKIEKVEKDGKKYYKVKIKVKTKDGKIKEIEITFPEGMSEEEIKKKIEELAKELGIEKVEIKPSA [r9_1203_TrROS_Hall] | 3.76 ± 0.44 | 4.7 ± 0.24 | 4.53 ± 0.67
29 | SKEKVKVEIKLTVTKVFPPEELEKDPKTGKYRNKDTGKWFEPPKVVVKELTLTIEMSKEEVEKLLKELLKSA [r9_165_TrROS_Hall] | 1.52 ± 0.059 | 2.63 ± 0.048 | 2.29 ± 0.095
30 | SKETETVEMEITITVNGKKVKIKATFTRNKDGSITMTITYEDGKKIEITFTNGKIVIVDKKTKKIIAEIPSA [r9_970_TrROS_Hall] | 2.54 ± 0.19 | 4.41 ± 0.15 | 4.14 ± 0.25
31 | SKFKIDEIKYEPNKPYTIKVKLPDGTTIEIKYDPNKPNEVKIILTHPDGSKKEFTLPYNYPININLKVNPSA [r9_875_TrMRF] | 1.59 ± 0.031 | 2.05 ± 0.081 | 1.95 ± 0.083
32 | SKGKKVLVIPATLPEAEEIAKALGLPPSLFPSSKKLVDALKEAFPENVVVVVAPAKPVTEEELKALAEGKSA [r9_74_TrMRF] | 0.19 ± 0.037 | 0.93 ± 0.039 | 0.678 ± 0.081
33 | SKIEIDEFPWERNPDDGYATIQIKIKVRDPDKKKKDIPHEFPPGSSPDQFWDQIENRAQNNGIKDVEISWSA [r9_1203_TrROS] | 0.0973 ± 0.058 | -0.0831 ± 0.11 | 0.032 ± 0.13
34 | SKIKIEEVPEGEEVEIEIPETKKTITIVKKDDYLIIKVKDKKTGEEKEIVIKVPPENIEEVLKKIEELLKSA [r9_982_TrROS_Hall] | 2.01 ± 0.1 | 2.34 ± 0.25 | 2.11 ± 0.4
35 | SKIRIEVPGETIEITVPPGATVEFDEETGEITITLPDGSKRTIRLPPNAKIEVVDGEIRITIRLPPPPEPSA [r9_653_TrROS_Hall] | 3.15 ± 0.12 | 2.78 ± 0.2 | 2.93 ± 0.21
36 | SKKIIIKITITDPKNKKKIKITEIIFDKKTKKIIIKIEVENVKNKEKLKSKEDVLEAIKKLLEKLGFKPISA [r9_258_TrROS_Hall] | 1.81 ± 0.23 | 2.47 ± 0.35 | 2.25 ± 0.47
